System: MS2 coat protein
Experiment: apparent KD of MS2 coat protein; designed switch direction (-1 OFF switch, 1 ON switch): -1; higher = weaker reporter binding
Method in brief: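 Normalised cluster fluorescence was curve-fitted, and each design's median over clusters is its apparent KD. Before this, SNAP-549-labelled MS2 coat protein was titrated from 0.7 or 1.5 nM, doubling to 3 µM, over RNA switches transcribed on Illumina chips by stalled E. coli RNA polymerase. Titrations had no input, 200 uM small-molecule ligand, or an oligonucleotide input, and steps lasted 0.8–1.5 h (lowest) to 10–20 min (highest).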

[1] = input ligand: microRNA oligo, concentration not stated
[2] = Eterna round: R95, input ligand: microRNA oligo, concentration not stated
[3] = Eterna round: R95, input ligand: FMN 200 uM
[4] = Eterna round: R95, input ligand: none

Sequence	apparent KD of MS2 coat protein (input ligand: FMN 200 uM) [nM]	apparent KD of MS2 coat protein [1] [nM]	apparent KD of MS2 coat protein (input ligand: none) [nM]	apparent KD of MS2 coat protein [2] [nM]	apparent KD of MS2 coat protein [3] [nM]	apparent KD of MS2 coat protein [4] [nM]
AGAGUACUGCGAGGAUAUACAUGAGGAUCACCCAUGUAAUAGUGUGAGGCUUUGCCUCACACAAUGUAGAAGGCGCAGUACUCA [Mat - Exclusion NG 2 - Mod of JL - D6] (Eterna round: R96, puzzle: Exclusion NG 2)	15.7	9.81	17.8	–	–	–
AGAGUACUGCGAGGAUAUACAUGAGGAUCACCCAUGUGGUGGUGUGAGGCUUUGCCUCACACCAUGUAGAAGGCGCAGUACUCA [Mat - Exclusion NG 2 - Mod of JL - D19] (Eterna round: R96, puzzle: Exclusion NG 2)	257	26.8	35.3	–	–	–
AGAGUGCUGCGAGGAUAUACAUGAGGAUCACCCAUGUAAAUGUGUGAGGCUUUGCCUCACACAAUGUAGAAGGCGCAGUACUCU [Mat - Exclusion NG 2 - Mod of JL - D1] (Eterna round: R96, puzzle: Exclusion NG 2)	17.8	8.58	15.6	–	–	–
AGAGUGCUGCGAGGAUAUACAUGAGGAUCACCCAUGUAUUAGUGUGAGGCUUUGCCUCACACAAUGUAGAAGGCGCAGUACUCA [Mat - Exclusion NG 2 - Mod of JL - D8] (Eterna round: R96, puzzle: Exclusion NG 2)	6.8	11.1	12.4	–	–	–
AGAUAGUGGUGAGGAUAUCAGAAUAGAAAGAAAUGAGAAGGCACACAUGAGGAUCACCCAUGUGAGUUCUUGAGAUUACAUGGU [Prohibition 41 - Jieux - Exclusion NG 1] (Eterna round: R96, puzzle: Exclusion NG 1)	–	14.4	–	–	–	–
AGAUAUAGAGGAUAUUUGCGGGAACACAUGAGGAUCACCCAUGUCGAAUAGACGCCCUAUAAAGAAGGCUAGACUG [Eternabot (L2) Solution 86] (Eterna round: R97, puzzle: Exclusion 5)	15.7	–	32.8	–	–	–
AGAUCACAUGAGGAUCACCCAUGUCAGGAUAUCGUCACUGGAGCUUCGGCUCCAGUGACGAGAAGGGACAUAAU [E1/2-A1] (Eterna round: R97, puzzle: Exclusion 1)	161	–	554	–	–	–
AGAUCACAUGAGGAUCACCCAUGUCAGGAUAUCGUCACUGGAGCUUCGGCUCCAGUGACGAGAAGGGAUAAUUA [E1/4-A1] (Eterna round: R97, puzzle: Exclusion 1)	124	–	55	–	–	–
AGAUCACAUGAGGAUCACCCAUGUCAGGAUAUGAUACUAUGUACUUCGGUACAUAGUAUCAGAAGGGACUUAAA [Ex1-3: 70] (puzzle: Exclusion 1)	–	–	–	101	–	–
AGAUCACAUGAGGAUCACCCAUGUCAGGAUAUGAUACUAUGUACUUCGGUACAUAGUAUCAGAAGGGAUAUGAA [Ex1-3: 67] (puzzle: Exclusion 1)	–	–	–	109	–	–
AGAUCCUGAGUCAGGAUAUAGAGACGGUAGUCGGGCUAGAAGGGACAUGAGGAUCACCCAUGUGGGUUCGGGCC [Zarareso] (puzzle: Brourd's mod of Exclusion 4)	–	–	–	12.8	–	–
AGAUCGAGUGUGAGGAUAUUGACCGGACGACCCAUCGAGAAGGCACAUGAGGAUCACCCAUGUGAUUCGGUUCA [Brourd's EX4 #57] (Eterna round: R97, puzzle: Brourd's mod of Exclusion 4)	27.1	–	15.4	–	–	–
AGAUCGUCAGGAUAUACAUGAGGAUCACCCAUGUAUUGUCUAAAUUUGACUAUACGAUGUAGAAGGGACGAUCG [Exclusion 3 (MOD7 of #1 Marzena11)] (Eterna round: R97, puzzle: Exclusion 3)	41.7	–	16.2	–	–	–
AGAUCUAGGACAGGAUAUAUGGAUGUCUUCAUCGAAGAUGAAGACAUCACAUGAGGAUCACCCAUGUAGAAGGGUCCUAGAUCA [Omei Exc(NG) 2Av2] (Eterna round: R96, puzzle: Exclusion NG 2)	11.9	13.5	15.6	–	–	–
AGAUGCUCAAGUCGACAUGAGGAUCACCCAUGUACAGUUAAUGAGGAUAUCUGAGAUAAAUAAUAGGAGAAGGCGUGAACAUGA [Ex NG3 #9] (Eterna round: R96, puzzle: Exclusion NG 3)	25.9	20.3	34.9	–	–	–
AGAUGCUCGAGUCAACAUGAGGAUCACCCAUGUACAGUUAAUGAGGAUAUCUGAGACAAAUAGUAGGAGAAGGCGUGAACAUGA [Ex NG3 #12] (Eterna round: R96, puzzle: Exclusion NG 3)	32.1	69	39.6	–	–	–
AGAUGCUCGAGUCGACAUGAGGAUCACCCAUGUACAGUUAGUGAGGAUAUCUGAGACACAUAGUAGGAGAAGGCGCGAACAUGA [Ex NG3 #13] (Eterna round: R96, puzzle: Exclusion NG 3)	132	43.4	60	–	–	–
AGAUGGCGAGGAUAUACAUGAGGAUCACCCAUGUGAAGAUAUAAAGUGAGGAAGAAAAGUAGAAGGCGCUGUCA [Mat - Exclusion 3 - Mod of Salish D25] (puzzle: Exclusion 3)	–	–	–	48.8	225	63.7
AGAUGGCGAGGAUAUACAUGAGGAUCACCCAUGUGAGAGAAAAGAGUGAGGAAGAAAAGUAGAAGGCGCUGUCA [Mat - Exclusion 3 - Mod of Salish D17] (puzzle: Exclusion 3)	–	–	–	71	–	–
AGAUGGCGAGGAUAUACAUGAGGAUCACCCAUGUGAGAUAAAAUAGUGAGGAAGAAAAGUAGAAGGCGCUGUCA [Mat - Exclusion 3 - Mod of Salish D15] (puzzle: Exclusion 3)	–	–	–	58.1	268	73
AGAUUAAAUGAGGAUAUCGUAUUGGAUAUAGUGCGAGAAGGCAUGACAUGAGGAUCACCCAUGUAGUGUUGGGA [JR_Ex6_Sub009] (Eterna round: R97, puzzle: Exclusion 6)	91.5	–	43.4	–	–	–
AGCACUAUCACGAAAGUGAUAGUGCAAUAAGCAAGUGAAACAUGAGGAUCACCCAUGUCCUCAAUUGCUCGUCUUAU [Mat - Sensor v2 -ver2- JL mod - D81] (Eterna round: R96, puzzle: Sensor v2, turn-off variant 2)	49.3	807	51.2	–	–	–
AGCAGACGAGGAUAUAAAUGAUAUAACAUGAGGAUCACCCAUGUACGAUCGAAUGAUCGUUUAGAAGGCGUCUGCU [E5/11-A1] (Eterna round: R97, puzzle: Exclusion 5)	16.5	–	16.3	–	–	–
AGCAGACGAGGAUAUGAUCAAUAAUACAUGAGGAUCACCCAUGUAAUACUGAUCCAUGGAUCAGAAGGCGUCUGCU [E5/5-A1] (Eterna round: R97, puzzle: Exclusion 5)	23.5	–	16.4	–	–	–
AGCAUGCUAGGAUAUACGAAACAUUAGGGUUCGUCGUAUGAACAUGAGGAUCACCCAUGUAGAAGGAGCGUGCA [Mat - Exclusion 2 - Mod of Hyphema - D95] (puzzle: Exclusion 2)	–	–	–	17.9	–	–
